Source: US20080207488A1, “Method for Detecting Peptides Comprising a Cross-B Structure” (priority 2005, published 2008)
Peptide text beside a SMILES is read from it.

Assays:
[1] = biological target: T1, LRP cl-IV binding to BSA-AGE (Bos taurus, UniProt P02769); test: ELISA, interference with LRP cl-IV binding to BSA-AGE; parameters: species or system human; settings: concentration series, 50 times diluted LRP cl-IV medium
T1 construct: made in house; host or cells: LRP cl-IV: HEK293E/S culture supernatant, 50 times diluted; BSA-AGE: glycated in house and coated
Description: To test whether amyloid-like crossbeta structure binding compounds tPA, Congo red, Thioflavin T and Thioflavin S interfere with LRP cl-IV binding to BSA-AGE, concentration series of the potential inhibitory amyloid binding moieties were tested in the presence of 50 times diluted medium containing LRP cl-IV. The following inhibitors were used: tPA, Congo red, Thioflavin T (ThT) and Thioflavin S (ThS). As a control to tPA, K2P tPA, which lacks the amyloid-like misfolded protein binding finger domain, was included in the analyses. The influence of tPA and K2P tPA was tested in the presence of 10 mM ε-amino caproic acid to avoid binding of the kringle2 domain of tPA and K2P tPA to lysine- and arginine residues. Binding buffer and K2P tPA served as negative controls in these inhibition studies. The concentration series was measured in triplicate, the values averaged and standard deviations calculated. Background signals obtained with buffer-coated wells were subtracted. Signals obtained with binding of LRP cluster IV to BSA-AGE was set arbitrarily to a reference binding of 100% and signals obtained with the concentration series of misfolded protein binding moieties and K2P tPA were calculated based on this set reference.

[2] = biological target: T2, factor XII (Homo sapiens, UniProt P00748); test: Chromogenic factor XII/prekallikrein activation assay (Chromozym-PK); format: biochemical; settings: peptide aggregates and surfaces
T2 construct: purchased Calbiochem, EMD Biosciences #233490
T2 sequence (P00748 20-615): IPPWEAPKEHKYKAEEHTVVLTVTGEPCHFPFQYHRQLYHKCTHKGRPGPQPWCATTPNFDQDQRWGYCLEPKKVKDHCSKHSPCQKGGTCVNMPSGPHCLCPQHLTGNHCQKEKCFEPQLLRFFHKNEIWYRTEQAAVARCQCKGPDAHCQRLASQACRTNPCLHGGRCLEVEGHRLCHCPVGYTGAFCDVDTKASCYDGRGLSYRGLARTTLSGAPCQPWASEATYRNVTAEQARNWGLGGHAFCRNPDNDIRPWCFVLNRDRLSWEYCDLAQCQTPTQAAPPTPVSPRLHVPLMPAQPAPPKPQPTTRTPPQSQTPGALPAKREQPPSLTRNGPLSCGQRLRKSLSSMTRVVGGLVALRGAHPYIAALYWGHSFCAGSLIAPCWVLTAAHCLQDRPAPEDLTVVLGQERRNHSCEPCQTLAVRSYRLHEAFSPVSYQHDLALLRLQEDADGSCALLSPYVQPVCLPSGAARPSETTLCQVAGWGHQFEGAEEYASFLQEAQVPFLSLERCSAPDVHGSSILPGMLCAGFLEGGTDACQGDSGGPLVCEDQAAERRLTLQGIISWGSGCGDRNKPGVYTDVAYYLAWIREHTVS
Description: (§1) Plasmin (Pls) activity was assayed as described^7. Peptides and proteins that were tested for their stimulatory ability were regularly used at 100 μg ml^−1. […] Chromogenic substrate S-2251 (Chromogenix, Instrumentation Laboratory SpA, Milano, Italy) was used to measure Pls activity. Conversion of zymogen factor XII (#233490, Calbiochem, EMD Biosciences, Inc., San Diego, Calif.) to proteolytically active factor XII (factor XIIa) was assayed by measurement of the conversion of chromogenic substrate Chromozym-PK (Roche Diagnostics, Almere, The Netherlands) by kallikrein. Chromozym-PK was used at a concentration of 0.3 mM. Factor XII, human plasma prekallikrein (#529583, Calbiochem) and human plasma cofactor high-molecular weight kininogen (#422686, Calbiochem) were used at concentrations of 1 μg ml^−1. […] Assays were performed using microtiter plates (Costar, Cambridge, Mass., USA). Peptides and proteins were tested for their ability to activate factor XII. 150 μg ml^−1 kaolin, an established activator of factor XII was used as positive control and solvent (H2O) as negative control. The conversion of Chromozym-PK was recorded kinetically at 37° C. for at least 60 minutes. Assays were done in duplicate. […] Alternatively, chromogenic substrate S-2222 (Chromogenix) was used to follow the activity of factor XII itself. With S-2222, activation of factor XII in plasma was measured, using 60% v/v plasma, diluted with substrate and H2O with or without potential cofactor. Furthermore, auto-activation of factor XII was measured by incubating 53 μg ml^−1 purified factor XII in 50 mM Tris-HCl buffer pH 7.5 with 1 mM EDTA and 0.001% v/v Triton-X100, with S-2222 and H2O with or without potential cofactor.
(§2) Formulated protein therapeutics were obtained from the local hospital pharmacy and were used as supplied by the manufacturers. […] Lyophilized therapeutics were dissolved according to the manufacturers recommendations. […] Other protein therapeutics were only kept at 4° C., and assayed for the presence of cross-β structure conformation at shown time points. Enhancement in fluorescence of ThT and Congo red was measured with all formulated protein therapeutics. For this purpose, proteins were diluted to the indicated concentrations. […] Zinc-insulin was diluted tenfold in the activation assay, GH was diluted to a final concentration of 500 μg ml^−1. Activation of factor XII and prekallikrein by the therapeutics was tested in the chromogenic factor XII assay (see above). […] After coating, plates were blocked with Blocking Reagent (Roche Diagnostics, Almere, The Netherlands).

[3] = biological target: T3, human BiP (Homo sapiens, UniProt P11021); test: ELISA, binding of BiP to coated (mis)folded proteins; settings: coated protein
T3 construct: made in house; host or cells: HEK293E cells, transient transfection, protein purified from the medium
Description: (§3) The plates were blocked using Blocking reagent (Roche 1112589). A dilution series of the protein of interest was applied to the coated proteins and wells were subsequently washed using TBS-T (50 mM Tris pH 7.3, 150 mM NaCl and 0.1% Tween20). Bound protein is detected by the FLAG-tag using 1:3000 anti-FLAG-HRP (Sigma A-8592) in PBS-T, or by 1:1000 Ni-NTA-HRP (Qiagen 34530) in PBS-T. The HRP reaction Is performed using the TMB substrate (Biosource 4501103 or Tebu Bio 101TMB100-500), stopped using 10% H2SO4 and absorbance was measured at 450 nm.

[4] = Thioflavin T fluorescence; format: physicochemical; settings: 25 μg ml^−1
Description: Fluorescence of ThT-protein/peptide adducts was measured as follows. […] Fluorescence was measured at 485 nm upon excitation at 435 nm. Background signals from buffer, buffer with ThT and protein/peptide solution without ThT were subtracted from corresponding measurements with protein solution incubated with ThT. […] Fluorescence was measured in triplicate on a Hitachi F-4500 fluorescence spectrophotometer (Ltd., Tokyo, Japan).
as §2
To prepare structurally altered ovalbumin (OVA) with amyloid cross-β structure conformation, purified OVA (Sigma, A-7641, lot 071k7094) was heated to 85° C. One mg ml^−1 OVA in 67 mM NaPi buffer pH 7.0, 100 mM NaCl, was heated for two cycles in PCR cups in a PTC-200 thermal cycler (MJ Research, Inc., Waltham, Mass., USA). In each cycle, OVA was heated from 30 to 85° C. at a rate of 5° C./min. Native OVA (nOVA) and heat-denatured OVA (dOVA) were tested in the ThT fluorescence assay and in the Plg-activation assay. In the fluorescence assay and in the Plg-activation assay, 25 and 100 μg ml^−1 nOVA and dOVA were tested, respectively. TEM images of nOVA and dOVA were taken to check for the presence of large aggregates. […] MSA (#126674, Calbiochem) was dissolved in 8 M urea, 100 mM Tris-HCl pH 8.2, at 10 mg ml^−1 final concentration. Dithiothreitol (DTT) was added to a final concentration of 10 mM. Air was replaced by N2 and the solution was incubated for 2 h at room temperature. Then, the solution was transferred to ice and iodoacetamide was added from a 1 M stock to a final concentration of 20 mM. […] Alkyl-MSA was dialyzed against H2O before use. […] In the ThT-fluorescence assay 25 μg ml^−1 nMSA and alkyl-MSA were tested, and in the Plg-activation assay 100 μg ml^−1 was tested. The presence of aggregates or fibrils was analyzed using TEM. […]
Protein therapeutics were obtained from the local hospital pharmacy and analyzed within the expiry limits as stated by the manufacturers.

[5] = biological target: T4, tPA (Homo sapiens, UniProt P00750); test: Plasminogen-activation assay (tPA-mediated Plg to Pls, S-2251); format: biochemical; settings: FIG. 6E, G
T4 construct: purchased Boehringer-Ingelheim (Actilyse, Alteplase)
Description: as §1, §2
Purification of β2-glycoprotein I (β2GPI) was performed according to established methods^11,12. Recombinant human β2GPI was made using insect cells and purified as described^11. Plasma derived β2GPI as used in a factor XII ELISA, the chromogenic Plg-activation assay and in the anti-phospholipid syndrome antibody ELISA (see below), was purified from fresh human plasma as described^12.
To prepare structurally altered ovalbumin (OVA) with amyloid cross-β structure conformation, purified OVA (Sigma, A-7641, lot 071k7094) was heated to 85° C. One mg ml^−1 OVA in 67 mM NaPi buffer pH 7.0, 100 mM NaCl, was heated for two cycles in PCR cups in a PTC-200 thermal cycler (MJ Research, Inc., Waltham, Mass., USA). In each cycle, OVA was heated from 30 to 85° C. at a rate of 5° C./min. Native OVA (nOVA) and heat-denatured OVA (dOVA) were tested in the ThT fluorescence assay and in the Plg-activation assay. In the fluorescence assay and in the Plg-activation assay, 25 and 100 μg ml^−1 nOVA and dOVA were tested, respectively. TEM images of nOVA and dOVA were taken to check for the presence of large aggregates. […] MSA (#126674, Calbiochem) was dissolved in 8 M urea, 100 mM Tris-HCl pH 8.2, at 10 mg ml^−1 final concentration.

[6] = biological target: T5, human fibronectin finger 4,5 (Fn F4,5) fragment (Homo sapiens, UniProt P02751); test: ELISA, binding of fibronectin F4,5 to coated (mis)folded proteins; settings: coated protein, FIG. 7D-H
T5 construct: human fibronectin finger 4,5 (Fn F4,5) fragment; made in house; host or cells: HEK293E cells, transient transfection, protein purified from the medium
Description: as §3

T1 sequence (P02769 25-607): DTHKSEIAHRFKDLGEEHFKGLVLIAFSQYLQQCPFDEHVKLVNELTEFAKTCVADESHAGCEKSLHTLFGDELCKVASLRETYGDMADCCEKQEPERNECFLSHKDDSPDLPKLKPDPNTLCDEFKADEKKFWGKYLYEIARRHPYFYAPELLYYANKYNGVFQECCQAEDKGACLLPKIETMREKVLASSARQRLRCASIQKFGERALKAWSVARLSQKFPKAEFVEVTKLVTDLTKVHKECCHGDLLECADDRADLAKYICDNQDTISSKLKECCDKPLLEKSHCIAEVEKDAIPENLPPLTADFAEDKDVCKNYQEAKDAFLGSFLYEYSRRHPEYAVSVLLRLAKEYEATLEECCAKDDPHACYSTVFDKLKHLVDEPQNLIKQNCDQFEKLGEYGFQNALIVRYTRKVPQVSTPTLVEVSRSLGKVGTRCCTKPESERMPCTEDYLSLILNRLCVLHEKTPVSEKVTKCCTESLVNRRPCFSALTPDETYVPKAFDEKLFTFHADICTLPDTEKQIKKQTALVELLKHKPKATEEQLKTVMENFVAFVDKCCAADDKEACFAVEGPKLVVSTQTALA
T3 sequence (P11021 19-654): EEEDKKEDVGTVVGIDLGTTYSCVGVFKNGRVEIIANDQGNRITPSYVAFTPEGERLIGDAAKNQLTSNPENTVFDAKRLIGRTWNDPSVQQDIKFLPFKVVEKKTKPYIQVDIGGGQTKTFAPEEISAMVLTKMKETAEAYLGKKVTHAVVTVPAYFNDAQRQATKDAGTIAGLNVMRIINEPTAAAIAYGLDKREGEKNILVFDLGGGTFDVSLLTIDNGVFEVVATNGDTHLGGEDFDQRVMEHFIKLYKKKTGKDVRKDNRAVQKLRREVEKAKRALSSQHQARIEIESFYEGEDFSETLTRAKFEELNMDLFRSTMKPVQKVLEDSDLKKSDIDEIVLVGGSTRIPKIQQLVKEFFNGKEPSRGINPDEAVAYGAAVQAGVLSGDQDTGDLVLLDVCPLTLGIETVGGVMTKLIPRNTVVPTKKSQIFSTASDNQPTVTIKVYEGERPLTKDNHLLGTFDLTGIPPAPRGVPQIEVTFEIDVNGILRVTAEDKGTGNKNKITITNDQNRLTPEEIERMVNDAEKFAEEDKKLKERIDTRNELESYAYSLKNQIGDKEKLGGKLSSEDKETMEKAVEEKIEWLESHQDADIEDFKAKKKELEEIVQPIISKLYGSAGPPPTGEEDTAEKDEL
T5 sequence (P02751 182-276 limits assumed): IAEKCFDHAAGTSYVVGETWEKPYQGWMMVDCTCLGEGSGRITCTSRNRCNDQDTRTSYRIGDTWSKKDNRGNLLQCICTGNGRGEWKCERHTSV
T4 sequence (P00750 36-562): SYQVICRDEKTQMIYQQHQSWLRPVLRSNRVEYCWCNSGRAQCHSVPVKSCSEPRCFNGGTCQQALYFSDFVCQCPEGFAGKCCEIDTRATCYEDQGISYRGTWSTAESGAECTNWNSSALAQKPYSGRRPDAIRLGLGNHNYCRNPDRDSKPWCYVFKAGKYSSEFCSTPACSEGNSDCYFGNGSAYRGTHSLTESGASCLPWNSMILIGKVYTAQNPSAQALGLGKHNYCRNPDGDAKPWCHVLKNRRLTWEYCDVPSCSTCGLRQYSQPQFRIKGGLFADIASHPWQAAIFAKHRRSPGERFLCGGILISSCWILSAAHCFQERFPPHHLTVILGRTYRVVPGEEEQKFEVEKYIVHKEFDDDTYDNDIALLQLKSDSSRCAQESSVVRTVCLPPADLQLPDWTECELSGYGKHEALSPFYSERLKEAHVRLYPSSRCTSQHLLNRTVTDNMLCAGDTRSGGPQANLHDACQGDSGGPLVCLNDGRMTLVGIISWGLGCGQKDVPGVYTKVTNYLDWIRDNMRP

Nc1c(/N=N/c2ccc(-c3ccc(/N=N/c4cc(S(=O)(=O)O)c5ccccc5c4N)cc3)cc2)cc(S(=O)(=O)O)c2ccccc12 [Congo red]
influence on binding of LRP cl-IV to BSA-AGE [1]: inhibit binding of LRP cl-IV to BSA-AGE to a large extent

CC[C@H](C)[C@H](NC(=O)CNC(=O)[C@@H](NC(=O)[C@H](CC(=O)O)NC(=O)[C@@H](NC(=O)[C@H](CC(=O)O)NC(=O)[C@@H](NC(=O)[C@H](CCC(=O)O)NC(=O)[C@H](CC(C)C)NC(=O)[C@H](CCCNC(=N)N)NC(=O)[C@@H](N)CCCCN)C(C)C)[C@@H](C)CC)[C@@H](C)CC)C(=O)N[C@@H](CCCNC(=N)N)C(=O)N[C@@H](CO)C(=O)O [FP13 K157G] (H-KRLEVDIDIGIRS-OH)
factor XII activation (kallikrein, Chromozym-PK conversion) [2]: stimulate the activation of factor XII

Cc1ccc2c(c1)sc(-c1ccc(N(C)C)cc1)[n+]2C [ThT, Thioflavin T]
influence on binding of LRP cl-IV to BSA-AGE [1]: do not interfere

Thioflavin S [ThS]
influence on binding of LRP cl-IV to BSA-AGE [1]: inhibit binding of LRP cl-IV to BSA-AGE to a large extent

heat-denatured BSA: heat-denatured bovine serum albumin
binding of BiP (detection anti-FLAG-HRP) [3]: not

heat-denatured glucagon: glucagon kept at 37° C. at low pH in HCl
ThT fluorescence enhancement of native and denatured proteins [4]: enhanced ThT fluorescence to a large extent
tPA activating potential of native and denatured glucagon and Etanercept [5]: potent activator of tPA

mIAPP: non-amyloid control peptide
factor XII activation (kallikrein, Chromozym-PK conversion) [2]: do not activate factor XII

reduced and alkylated lysozyme: reduced and alkylated lysozyme
affinity of fibronectin F4,5 (detection anti-FLAG HRP) [6]: high affinity
